Values belong to the binder of their own block, whether it stands above or below them.
Key:
[1] = target: T1, human G protein β2 subunit (human, UniProt P62879 1-340); assay: tryptic proteolysis protection assay of co-translated β and γ subunits (rabbit reticulocyte lysate, SDS-PAGE)
Procedure: (§1) βγ interaction was assessed by a tryptic proteolysis assay. Plasmid DNA (1 μg) for each of the β and γ subunits were co-transcribed and co-translated in the TNT-coupled rabbit reticulocyte lysate system (Promega, Madison, Wis.). The plasmid DNA for each of the γ subunits was linearized to limit the generation of translated products of higher molecular weight. […] To increase levels of the γ₁₀ and γ₁₁ subunits 2 μg of capped RNA were added to the co-transcribed β-γ mix. Alternatively, γ₁₀ and γ₁₁ subunits that had been translated separately were added to the co-translated β-γ mix. For tryptic digestion, 5 or 10 μl aliquots of the co-translated β-γ mix were digested by addition of 1 μl trypsin (1 μg) in a final volume of 20 μl (with 50 mM Na-HEPES, pH 8.0) After incubation for 1 hour at 30° C., the digestions were stopped by addition of Laemmli sample buffer and boiling for 3 minutes. Protected fragments of β were visualized by running samples on 15% SDS-PAGE gels. After electrophoresis, gels were fixed in 40% methanol/10% acetic acid mix, soaked in ENHANCE (DuPont-NEN, Boston, Mass.), and dried. The dried gels were exposed for 8 to 48 hours at −80° C.

[2] = target: T1, human G protein β2 subunit; assay: tryptic proteolysis protection assay of co-translated β and γ subunits (βγ dimer formation)
Procedure: as §1

T1 sequence (P62879 whole entry): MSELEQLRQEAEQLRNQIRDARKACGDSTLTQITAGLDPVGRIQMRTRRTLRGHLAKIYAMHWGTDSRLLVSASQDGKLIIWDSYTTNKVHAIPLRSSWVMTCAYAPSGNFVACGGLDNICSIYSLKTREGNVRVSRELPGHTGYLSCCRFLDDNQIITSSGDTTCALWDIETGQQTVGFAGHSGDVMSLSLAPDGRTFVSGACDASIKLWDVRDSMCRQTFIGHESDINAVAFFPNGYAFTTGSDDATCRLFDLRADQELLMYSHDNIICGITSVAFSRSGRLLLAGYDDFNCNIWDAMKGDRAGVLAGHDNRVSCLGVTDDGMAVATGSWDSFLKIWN

binding result [1]: no binding
B1: human G protein γ11 subunit (other)
chain: MPALHIEDLPEKEKLKMEVEQLRKEVKLQRQQVSKCSEEIKNYIEERSGEDPLVKGIPEDKNPFKEKGSCVIS
modifications: modified by a farnesyl group (residue not stated)

binding result [2]: binds
B2: human G protein γ4 subunit (other)
chain: MKEGMSNNSTTSISQARKAVEQLKMEACMDRVKVSQAAADLLAYCEAHVREDPLIIPVPASENPFREKKFFCTIL
modifications: modified by a geranylgeranyl group (residue not stated)

— patent publication US20020106678A1 (published 2002)
